Columns and labels:
Human mPB CD34+ cells = test: Proliferative activity on human granulocyte progenitors (flow cytometry); type: cell-based; conditions: for Number of CD45RA-CD41-: 7 days, flow cytometry
Protocol: Human mPB CD34^+ cells were purchased from AllCells. Cells were resuspended in HSC expansion medium (StemSpan SFEM, StemCell Technologies) supplemented with 1× antibiotics and the following recombinant human cytokines: thrombopoietin, IL6, Flt3 ligand, and stem cell factor (100 ng/mL, R & D Systems), then plated in 96-well plates (1000 cells per well), with varied concentrations of BLV1H12-bGCSF fusion antibodies. Cells were cultured for 7 days at 37° C. in a 5% CO2 incubator, then analyzed by flow cytometry to measure cell number and expression of CD45ra and CD41. Cells were stained in staining medium (HBSS supplemented with 2% FBS and 2 mM EDTA) at 4° C. for 1 h with PECy7 anti-CD45ra and eFluor 450 anti-CD41 (eBiosciences), then washed with staining medium and analyzed. Multicolor analysis for cell phenotyping was performed on a LSR II flow cytometer (Becton Dickinson). FIGS. 10A-10E and Tables 9-10 show the human granulocyte progenitor cell proliferative activities of the Ab-GCSF fusion antibodies.

GLP-1 receptor (GLP-1R) = biological target: T1, GLP-1 receptor (GLP-1R) (Homo sapiens, UniProt P43220); test: GLP-1R activation, cAMP responsive luciferase reporter in HEK293 cells; type: cell-based; conditions: HEK293 cells expressing GLP-1R, 24 h
T1 construct: expressed in transfected cells; host or cells: HEK293 (with cAMP responsive luciferase reporter gene)
Protocol: HEK293 cells expressing surface GLP-1R and cAMP responsive luciferase reporter gene were seeded in 384 well plates at a density of 5000 cells per well. […] Subsequently, luciferase assay was performed using One-Glo luciferase reagent according manufacture's instruction (Promega).
HEK293 cells expressing surface GLP-1R and cAMP responsive luciferase reporter gene were seeded in 384 well plates at a density of 5000 cells per well. After 24 h incubation at 37° C. with 5% CO2, cells were treated with various concentrations of peptides and BLV1H12-GLP-1 clip fusion proteins and incubated for another 24 h. Subsequently, luciferase assay was performed using One-Glo luciferase reagent according manufacture's instruction (Promega).

Mouse NFS-60 cells = test: Proliferation assay on mouse NFS-60 cells (AlamarBlue); type: cell-based; conditions: for F.I. (fluorescence at 595 nm, AlamarBlue, cell viability): 72 hours
Protocol: Mouse NFS-60 cells were obtained from American Type Culture Collection (ATCC), VA, and cultured in RPMI-1640 medium supplemented with 10% fetal bovine serum (FBS), 0.05 mM 2-mercapoethanol and 62 ng/ml human macrophage colony stimulating factor (M-CSF). For proliferation assay, mouse NFS-60 cells were washed three times with RPMI-1640 medium and resuspended in RPMI-1640 medium with 10% FBS and 0.05 mM 2-mercapoethanol at a density of 1.5×10^5 cells/ml. In 96-well plates, 100 μl of cell suspension was added into each well, followed by the addition of varied concentrations of bGCSF, BLV1H12 antibody, and the immunoglobulin constructs described herein, Equal volume of PBS buffer was added into the control wells. The plates were incubated at 37° C. in a 5% CO2 incubator for 72 hours. Cells were then treated with AlamarBlue (Invitrogen) ( 1/10 volume of cell suspension) for 4 hours at 37° C. Fluorescence at 595 nm for each well was read to indicate the cell viability.

mice neutrophils = test: Neutrophil counts in mice, 10th day after injection; type: in vivo; conditions: blood stained and counted at the 10th day post-injection
Protocol: On the 10th day after injection of BLV1H12-bGCSF fusion antibodies into mice for PK study, blood samples were drawn from the mice and stained using the Diff Quick Staining Kit (Thermo Fisher Scientific, IL). Neutrophils and white blood cells were counted under microscope and the percentages of neutrophils were analyzed. FIGS. 12A-12B and Table 12 show proliferative activities of BLV1H12-bGCSF fusion antibodies on mice neutrophils that are blood stained and counted at the 10th day post-injection.

[1] = Pharmacokinetics in mice (ELISA of blood samples); type: in vivo; conditions: 70 μg injected, BALB/c mice
Protocol: For PK study in mice, 70 μg of the immunoglobulin constructs described herein were injected into 3 BALB/c mice per group. Blood samples were drawn from time 0 to 14 days with extended intervals and analyzed by ELISA using anti-human IgG Fc antibody with horseradish peroxidase (HRP) labeled (KPL) and anti-6×His antibody (“6×His” disclosed as SEQ ID NO: 511) with HRP labeled (Clontech). Data were normalized by taking maximal concentration at the first time point (30 min).

T1 sequence (P43220 24-463, species assumed): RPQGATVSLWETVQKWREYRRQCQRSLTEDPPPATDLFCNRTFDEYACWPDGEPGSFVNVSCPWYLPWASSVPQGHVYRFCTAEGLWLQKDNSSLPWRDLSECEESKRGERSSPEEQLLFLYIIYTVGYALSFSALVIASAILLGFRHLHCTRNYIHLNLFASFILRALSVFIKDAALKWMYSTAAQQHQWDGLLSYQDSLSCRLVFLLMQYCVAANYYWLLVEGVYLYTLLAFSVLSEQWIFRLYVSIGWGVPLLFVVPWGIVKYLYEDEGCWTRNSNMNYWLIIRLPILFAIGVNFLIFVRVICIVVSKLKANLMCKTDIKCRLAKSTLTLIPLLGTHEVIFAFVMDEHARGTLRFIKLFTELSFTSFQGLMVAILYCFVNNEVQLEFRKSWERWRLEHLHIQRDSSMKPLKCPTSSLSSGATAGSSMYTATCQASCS

B1: Ab: bovine BLV1H12 antibody with ultralong CDR3, no insertion; scaffold of the fusions and control (antibody)
heavy: QVQLRESGPSLVKPSQTLSLTCTASGFSLSDKAVGWVRQAPGKALEWLGSIDTGGNTGYNPGLKSRLSITKDNSKSQVSLSVSSVTTEDSATYYCTSVHQETKKYQSCPDGYRERSDCSNRPACGTSDCCRVSVFGNCLTTLPVSYSYTYNYEWHVDVWGQGLLVTVSS
light: QAVLNQPSSVSGSLGQRVSITCSGSSSNVGNGYVSWYQLIPGSAPRTLIYGDTSRASGVPDRFSGSRSGNTATLTISSLQAEDEADYFCASAEDSSSNAVFGSGTTLTVLGQPKSPPSVTLFPPSTEELNGNKATLVCLISDFYPGSVTVVWKADGSTITRNVETTRASKQSNSKYAASSYLSLTSSDWKSKGSYSCEVTHEGSTVTKTVKPSECS
Question: Which “proliferative activity on human granulocyte progenitor cells” value (Human mPB CD34+ cells) does the source give for B1 here?
Answer: The value was “lack of proliferative activity”.

Question: What about the “Number of CD45RA-CD41-” value (Human mPB CD34+ cells; 0.28959 ng/mL) of the same molecule?
Answer: Its value is 3666.

Question: And the “Number of CD45RA-CD41-” value (Human mPB CD34+ cells; 0.86877 ng/mL)?
Answer: The value was 3839.

Question: What about the “Number of CD45RA-CD41-” value (Human mPB CD34+ cells; 2.60631 ng/mL) of the same molecule?
Answer: Its value is 3852.

Question: And the “Number of CD45RA-CD41-” value (Human mPB CD34+ cells; 23.45679 ng/mL)?
Answer: Its value is 3519.

Question: What about the “Number of CD45RA-CD41-” value (Human mPB CD34+ cells; 70.37037 ng/mL) of the same molecule?
Answer: Its value is 3541.

Question: And the “Number of CD45RA-CD41-” value (Human mPB CD34+ cells; 211.11111 ng/mL)?
Answer: The value was 3606.

Question: And the “Number of CD45RA-CD41-” value (Human mPB CD34+ cells; 5700 ng/mL)?
Answer: Its value is 4100.

Question: What about the “RLU (cAMP responsive luciferase reporter)” value (“RLU” for short) (GLP-1 receptor (GLP-1R); 1.26953 nM) of the same molecule?
Answer: Its value is 5200 RLU.

Question: What about the “RLU” value (GLP-1 receptor (GLP-1R); 2.53906 nM) of the same molecule?
Answer: The value was 5000 RLU.

Question: And the “RLU” value (GLP-1 receptor (GLP-1R); 5.07813 nM)?
Answer: The value was 5600 RLU.

Question: What about the “RLU” value (GLP-1 receptor (GLP-1R); 10.15625 nM) of the same molecule?
Answer: The value was 5500 RLU.

Question: What about the “RLU” value (GLP-1 receptor (GLP-1R); 20.3125 nM) of the same molecule?
Answer: Its value is 5380 RLU.

Question: What about the “RLU” value (GLP-1 receptor (GLP-1R); 40.625 nM) of the same molecule?
Answer: Its value is 4600 RLU.

Question: What about the “RLU” value (GLP-1 receptor (GLP-1R); 81.25 nM) of the same molecule?
Answer: The value was 6140 RLU.

Question: And the “RLU” value (GLP-1 receptor (GLP-1R); 162.5 nM)?
Answer: Its value is 5760 RLU.

Question: What about the “RLU” value (GLP-1 receptor (GLP-1R); 325 nM) of the same molecule?
Answer: Its value is 5600 RLU.

Question: And the “RLU” value (GLP-1 receptor (GLP-1R); 650 nM)?
Answer: The value was 5800 RLU.

Question: And the “RLU” value (GLP-1 receptor (GLP-1R); 1300 nM)?
Answer: Its value is 14000 RLU.

Question: And the “proliferative activity on mouse NFS-60 cells” value (Mouse NFS-60 cells)?
Answer: The value was “lack of proliferative activity”.

Question: And the “F.I. (fluorescence at 595 nm, AlamarBlue, cell viability)” value (Mouse NFS-60 cells; 0.45725 ng/mL)?
Answer: Its value is 1040.

Question: What about the “F.I. (fluorescence at 595 nm, AlamarBlue, cell viability)” value (Mouse NFS-60 cells; 1.37174 ng/mL) of the same molecule?
Answer: Its value is 1010.

Question: What about the “F.I. (fluorescence at 595 nm, AlamarBlue, cell viability)” value (Mouse NFS-60 cells; 4.11523 ng/mL) of the same molecule?
Answer: Its value is 983.3.

Question: And the “F.I. (fluorescence at 595 nm, AlamarBlue, cell viability)” value (Mouse NFS-60 cells; 12.34568 ng/mL)?
Answer: The value was 971.8.

Question: What about the “F.I. (fluorescence at 595 nm, AlamarBlue, cell viability)” value (Mouse NFS-60 cells; 37.03704 ng/mL) of the same molecule?
Answer: The value was 960.5.

Question: What about the “F.I. (fluorescence at 595 nm, AlamarBlue, cell viability)” value (Mouse NFS-60 cells; 111.11111 ng/mL) of the same molecule?
Answer: Its value is 991.83.

Question: And the “F.I. (fluorescence at 595 nm, AlamarBlue, cell viability)” value (Mouse NFS-60 cells; 333.33333 ng/mL)?
Answer: Its value is 964.798.

Question: What about the “Percentage of Neutrophil” value (mice neutrophils) of the same molecule?
Answer: The value was 18.81.

Question: And the “Percentage (blood level normalized to first time point, 30 min)” value ([1]; day 0.021)?
Answer: Its value is 100.00%.

Question: And the “Percentage (blood level normalized to first time point, 30 min)” value ([1]; day 0.042)?
Answer: Its value is 106.09%.

Question: What about the “Percentage (blood level normalized to first time point, 30 min)” value ([1]; day 0.083) of the same molecule?
Answer: The value was 95.88%.

Question: What about the “Percentage (blood level normalized to first time point, 30 min)” value ([1]; day 0.125) of the same molecule?
Answer: Its value is 86.54%.

Question: What about the “Percentage (blood level normalized to first time point, 30 min)” value ([1]; day 0.250) of the same molecule?
Answer: The value was 74.26%.

Question: And the “Percentage (blood level normalized to first time point, 30 min)” value ([1]; day 1.000)?
Answer: Its value is 52.43%.

Question: What about the “Percentage (blood level normalized to first time point, 30 min)” value ([1]; day 2.000) of the same molecule?
Answer: The value was 39.46%.

Question: And the “Percentage (blood level normalized to first time point, 30 min)” value ([1]; day 3.000)?
Answer: Its value is 36.97%.

Question: What about the “Percentage (blood level normalized to first time point, 30 min)” value ([1]; day 8.000) of the same molecule?
Answer: Its value is 45.44%.

Question: And the “Percentage (blood level normalized to first time point, 30 min)” value ([1]; day 10.000)?
Answer: Its value is 40.98%.

Question: What about the “Percentage (blood level normalized to first time point, 30 min)” value ([1]; day 14.000) of the same molecule?
Answer: The value was 51.96%.
